Test [1] deals with p53 in NIH 3T3 cell protein extract (mouse (endogenous in mouse fibroblast …, UniProt P02340 1-390)). Briefly: co-immunoprecipitation with anti-p53 antibody pAb 421, Western blot with rabbit anti-Agno. In general terms: In western blotting, separated proteins are transferred to a membrane and probed.
For test [2], the target named is T1, GST alone (UniProt P08515 1-218 = GST). The test can be described thus: GST pull-down from NIH 3T3 cell extract, Western blot with anti-agnoprotein antibody.
T1 sequence (P08515 whole entry): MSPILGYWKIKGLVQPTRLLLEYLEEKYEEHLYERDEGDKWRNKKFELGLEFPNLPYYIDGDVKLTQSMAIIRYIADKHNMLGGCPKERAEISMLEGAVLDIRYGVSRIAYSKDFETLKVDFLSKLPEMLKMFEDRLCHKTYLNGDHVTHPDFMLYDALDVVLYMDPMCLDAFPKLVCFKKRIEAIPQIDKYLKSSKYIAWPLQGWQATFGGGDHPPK
Test [3] concerns the target T1, GST alone. Briefly: GST pull-down, autoradiography.

The text below walks through data of patent publication US20060052296A1 (TEMPLE UNIVERSITY OF THE COMMONWEALTH SYSTEM OF HIGHER …, published 2006).

p53 in NIH 3T3 cell protein extract (mouse, sequence (P02340 whole entry): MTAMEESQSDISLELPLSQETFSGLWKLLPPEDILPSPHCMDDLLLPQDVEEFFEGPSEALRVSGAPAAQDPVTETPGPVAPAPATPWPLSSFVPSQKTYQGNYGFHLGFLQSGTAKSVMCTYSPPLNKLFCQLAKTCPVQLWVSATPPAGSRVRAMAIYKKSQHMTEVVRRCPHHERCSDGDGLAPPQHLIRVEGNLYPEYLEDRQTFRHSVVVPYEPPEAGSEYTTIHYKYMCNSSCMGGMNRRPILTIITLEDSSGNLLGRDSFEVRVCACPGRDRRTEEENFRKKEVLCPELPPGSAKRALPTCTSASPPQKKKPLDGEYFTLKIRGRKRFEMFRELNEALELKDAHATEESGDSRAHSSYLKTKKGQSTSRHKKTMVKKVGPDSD

B1: YFP-agnoprotein (other)
chain: MVLRQLSRKASVKVSKTWSGTKKRAQRILIFLLEFLLDFCTGEDSVDGKKRQRHSGLTEQTYSALPEPKAT
notes: also called GFP-Agnoprotein; fusion agnoprotein
B1: the binding result was “binds” in test [1] and “no binding” in the test with GST alone [2].

B2: in vitro synthesized [35S]-labeled agnoprotein (other)
chain: B1 chain
notes: also called in vitro translated [35S]-labeled agnoprotein
For B2, the binding result with GST alone [3] is reported as “no binding”.
